In data set [1] the test system is O=[N+]([O-])c1ccc(O[C@H]2O[C@H](CO)[C@@H](O)[C@H](O)[C@H]2O)cc1. Description: purified protein. The conditions noted are these: 50 mM sodium phosphate pH 7.0, 50 mM NaCl.
Data set [2] concerns the target GH31_u1 protein from Lactococcus lactis subsp. cremoris MG1363 (LlGH31_u1), wild type (Lactococcus lactis subsp. cremoris MG1363). Description: cryo-EM structure; single-particle analysis; 1.13 μM (as a hexamer) in 20 mM sodium phosphate buffer (pH 7.0), 300 mM NaCl.
Data set [3] shares this target. Description: SEC; gel filtration on HiLoad 16/60 Superdex 200 prep grade for molecular weight determination; 20 mM sodium phosphate buffer (pH 7.0), 300 mM NaCl. In general terms: SEC sorts molecules by how far they enter the pores of the column.
Data set [4] has the same target. Description: crystal structure; hanging-drop vapor diffusion at 20 °C, PEG 3350, sodium citrate pH 7.0; crystal form 1 (P2_(1), six molecules in the asymmetric unit) and crystal form 2 (P6_(3)22, one molecule, hexamer by symmetry); unliganded, glucose-soaked or cocrystallised with 10 mM ligands.
For data set [5], the target named is T1, LlGH31_u1 (Lactococcus cremoris, UniProt A2RM80).
T1 construct: gene xylS; full length (no signal peptide), N-terminal His tag, pET28a, E. coli BL21(DE3); Tyr99 of the adjacent protomer reaches the active site
T1 sequence (A2RM80 1-739): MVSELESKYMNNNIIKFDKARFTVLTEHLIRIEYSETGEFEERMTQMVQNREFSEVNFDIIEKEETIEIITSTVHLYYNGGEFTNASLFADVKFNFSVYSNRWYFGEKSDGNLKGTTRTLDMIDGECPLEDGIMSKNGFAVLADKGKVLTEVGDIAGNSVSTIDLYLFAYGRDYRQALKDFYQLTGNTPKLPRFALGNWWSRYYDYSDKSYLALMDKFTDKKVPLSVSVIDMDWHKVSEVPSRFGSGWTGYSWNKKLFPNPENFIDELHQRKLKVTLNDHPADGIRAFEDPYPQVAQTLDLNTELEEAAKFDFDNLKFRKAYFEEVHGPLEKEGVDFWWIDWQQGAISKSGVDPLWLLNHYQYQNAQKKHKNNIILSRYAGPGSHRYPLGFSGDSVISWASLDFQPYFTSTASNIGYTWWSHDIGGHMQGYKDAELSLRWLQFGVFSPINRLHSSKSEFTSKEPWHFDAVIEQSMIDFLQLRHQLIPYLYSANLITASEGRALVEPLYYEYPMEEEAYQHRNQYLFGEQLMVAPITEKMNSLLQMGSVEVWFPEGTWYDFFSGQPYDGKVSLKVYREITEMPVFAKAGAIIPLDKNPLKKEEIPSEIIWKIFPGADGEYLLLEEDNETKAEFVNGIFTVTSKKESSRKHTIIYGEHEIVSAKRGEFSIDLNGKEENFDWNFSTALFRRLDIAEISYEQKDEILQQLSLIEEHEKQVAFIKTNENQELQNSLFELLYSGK
Description: X-ray crystal structure of complex (soaked). It is filed as binding. The conditions noted are these: 100 mM glucose soak, 45 min; subsite −1; both α- and β-anomers modelled.

Substrate in data set [6]: O=[N+]([O-])c1ccc(O[C@H]2O[C@H](CO)[C@@H](O)[C@H](O)[C@H]2O)cc1
Description: purified protein. The conditions noted are these: 50 mM sodium phosphate pH 7.0, 50 mM NaCl. This is another data set of the same source.

We go through four molecules from article PMC9061262, “Structural basis of the strict specificity of a bacterial GH31 α-1,3-glucosidase for nigerooligosaccharides” (The Journal of Biological Chemistry, 2022).

For orientation: Km means the substrate concentration at which the rate is half of its maximum. In general, stoichiometry N refers to the number of molecules, sites or subunits per partner or assembly. The term kcat denotes the number of substrate molecules converted per active site and unit of time at saturation. A word on the kcat/Km: it is the second-order rate constant that governs catalysis at low substrate concentration.

“LlGH31_u1 (Lactococcus cremoris subsp. cremoris MG1363; Y99F)”: the Km in data set [1] came to 28 ± 0.8 mM.

Turning to “GH31_u1 protein from Lactococcus lactis subsp. cremoris MG1363 (LlGH31_u1), wild type (enzyme)”, the stoichiometry N in data set [2], in data set [3] and in data set [4] was 6 each time.

Take `OC[C@H]1OC(O)[C@H](O)[C@@H](O)[C@@H]1O` (some centres unmarked) [glucose]: in data set [5], the “X-ray crystal structure of complex (soaked)” value was “we determined the crystal structure of WT in complex with glucose (WT-Glc)”.

B1: LlGH31_u1 (Lactococcus cremoris subsp. cremoris MG1363) (protein)
chain: MVSELESKYMNNNIIKFDKARFTVLTEHLIRIEYSETGEFEERMTQMVQNREFSEVNFDIIEKEETIEIITSTVHLYYNGGEFTNASLFADVKFNFSVYSNRWYFGEKSDGNLKGTTRTLDMIDGECPLEDGIMSKNGFAVLADKGKVLTEVGDIAGNSVSTIDLYLFAYGRDYRQALKDFYQLTGNTPKLPRFALGNWWSRYYDYSDKSYLALMDKFTDKKVPLSVSVIDMDWHKVSEVPSRFGSGWTGYSWNKKLFPNPENFIDELHQRKLKVTLNDHPADGIRAFEDPYPQVAQTLDLNTELEEAAKFDFDNLKFRKAYFEEVHGPLEKEGVDFWWIDWQQGAISKSGVDPLWLLNHYQYQNAQKKHKNNIILSRYAGPGSHRYPLGFSGDSVISWASLDFQPYFTSTASNIGYTWWSHDIGGHMQGYKDAELSLRWLQFGVFSPINRLHSSKSEFTSKEPWHFDAVIEQSMIDFLQLRHQLIPYLYSANLITASEGRALVEPLYYEYPMEEEAYQHRNQYLFGEQLMVAPITEKMNSLLQMGSVEVWFPEGTWYDFFSGQPYDGKVSLKVYREITEMPVFAKAGAIIPLDKNPLKKEEIPSEIIWKIFPGADGEYLLLEEDNETKAEFVNGIFTVTSKKESSRKHTIIYGEHEIVSAKRGEFSIDLNGKEENFDWNFSTALFRRLDIAEISYEQKDEILQQLSLIEEHEKQVAFIKTNENQELQNSLFELLYSGK
Take B1: in data set [6], the Michaelis constant (Km) was found to be 20 ± 0.8 mM, the kcat is 31 s⁻¹ and the kcat/Km was found to be 1500 M⁻¹ s⁻¹.
